# Reference: the supplement of paper PMC6755084
# B1: F1*; the commonest letter at each place (parent)
# chain: GAGACCGCAACTGAAAAGTTGTTATCACTTGTCGTAAGACACTTTGGATGGGTTGAAGTTCTGCACGTAGAAGCAAAAGGC
# Variants of: B1
# Experiment: fraction ligated after 30 min (ligated reads / total reads); higher = more ligase activity
# Details: with F1*sub RNA substrate (template-directed ligation), 42 °C
# Protocol: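 Chip-synthesised pool of F1* ligase ribozyme variants (all single and double substitutions, single, double and triple deletions in the catalytic core and GAA bulge, plus designed variants) was transcribed with T7 and reacted as a pool with excess substrate F1*sub for 30 min at 42 C in 50 mM EPPS pH 8.5, 25 mM MgCl2. Ligated and unligated bands were separated by PAGE, barcoded by RT and deep sequenced; fraction ligated = ligated reads / total reads per variant, relative activity = FL / FL of wild type (0.826). Sequences are the DNA template of the ribozyme.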
row,Variant,fraction ligated
1,A24G C33A,0.746
2,A24G C33T,0.832
3,A24G C33G,0.785
4,A24G A56G,0.0845
5,A24G A56C,0.0669
6,A24G A56T,0.0729
7,A24G A37T,0.764
8,A24G A37G,0.852
9,A24G A37C,0.796
10,A24G C28T,0.743
11,A24G C28G,0.701
12,A24G C28A,0.719
13,A24C T29C,0.28
14,A24C T29G,0.766
15,A24C T29A,0.747
16,A24C G50C,0.532
17,A24C G50A,0.431
18,A24C G50T,0.646
19,A24C,0.747
20,A24G,0.777
21,A24C A27G,0.692
22,A24C A27C,0.557
23,A24C A27T,0.668
24,T23G T35G,0.86

row,Variant,fraction ligated
1,T23G T35C,0.827
2,T23G T35A,0.834
3,A24C C40T,0.707
4,A24C C40A,0.165
5,A24C C40G,0.348
6,A24C C42A,0.779
7,A24C C42G,0.775
8,A24C C42T,0.779
9,A24C A56T,0.0488
10,A24C A56G,0.0302
11,A24C A56C,0.0226
12,T23G T32G,0.842
13,T23G T32A,0.858
14,T23G T32C,0.75
15,A24C T43G,0.792
16,A24C T43C,0.231
17,A24C T43A,0.625
18,A24C G38A,0.508
19,A24C G38T,0.468
20,A24C G38C,0.274
21,A24G A57C,0.632
22,A24G A57T,0.728
23,A24G A57G,0.762
24,T23G T25G,0.738

row,Variant,fraction ligated
1,T23G T25A,0.78
2,T23G T25C,0.781
3,A24C A57C,0.368
4,A24C A57G,0.633
5,A24C A57T,0.55
6,T23G T29G,0.797
7,T23G T29A,0.824
8,T23G T29C,0.784
9,A24C C28A,0.727
10,A24C C28T,0.786
11,A24C C28G,0.742
12,A24C A37T,0.754
13,A24C A37C,0.716
14,A24C A37G,0.626
15,A24C G47A,0.806
16,A24C G47T,0.0249
17,A24C G47C,0.00476
18,A24G A27T,0.126
19,A24G A27C,0.776
20,A24G A27G,0.701
21,T23G G50C,0.401
22,T23G G50A,0.633
23,T23G G50T,0.728
24,A24C G31A,0.0336

row,Variant,fraction ligated
1,A24C G31C,0.038
2,A24C G31T,0.0308
3,T23G G55A,0.832
4,T23G G55C,0.809
5,T23G G55T,0.826
6,T23G T49C,0.748
7,T23G T49A,0.766
8,T23G T49G,0.761
9,T23G T45G,0.523
10,T23G T45A,0.795
11,T23G T45C,0.781
12,A24C C26A,0.417
13,A24C C26G,0.419
14,A24C C26T,0.0218
15,T23G T30A,0.808
16,T23G T30C,0.765
17,T23G T30G,0.8
18,A24G A39G,0.827
19,A24G A39T,0.664
20,A24G A39C,0.504
21,A24C A48G,0.614
22,A24C A48T,0.0426
23,A24C A48C,0.186
24,A24G A41T,0.701

row,Variant,fraction ligated
1,A24G A41C,0.034
2,A24G A41G,0.691
3,A24C G55T,0.0793
4,A24C G55C,0.158
5,A24C G55A,0.649
6,A24C T25C,0.793
7,A24C T25G,0.787
8,A24C T25A,0.793
9,A24C A41G,0.608
10,A24C A41C,0.00606
11,A24C A41T,0.614
12,A24C T45C,0.0358
13,A24C T45A,0.152
14,A24C T45G,0.0118
15,A24C G34A,0.727
16,A24C G34T,0.648
17,A24C G34C,0.185
18,A24G A36T,0.789
19,A24G A36G,0.813
20,A24G A36C,0.833
21,A24G C26G,0.268
22,A24G C26A,0.711
23,A24G C26T,0.728
24,A24C T44G,0.292

row,Variant,fraction ligated
1,A24C T44C,0.563
2,A24C T44A,0.759
3,A24C G46T,0.0441
4,A24C G46A,0.335
5,A24C G46C,0.043
6,A24G C40G,0.802
7,A24G C40T,0.84
8,A24G C40A,0.731
9,A24G G34T,0.729
10,A24G G34C,0.73
11,A24G G34A,0.763
12,A24C T32G,0.144
13,A24C T32A,0.0611
14,A24C T32C,0.062
15,A24G C42T,0.802
16,A24G C42A,0.796
17,A24G C42G,0.795
18,A24G A48C,0.729
19,A24G A48T,0.0442
20,A24G A48G,0.762
21,A24C T49A,0.805
22,A24C T49C,0.731
23,A24C T49G,0.806
24,T23G T43C,0.747

row,Variant,fraction ligated
1,T23G T43A,0.811
2,T23G T43G,0.821
3,A24C A36C,0.763
4,A24C A36G,0.0223
5,A24C A36T,0.767
6,A24C A39C,0.131
7,A24C A39T,0.197
8,A24C A39G,0.774
9,T23G T44C,0.802
10,T23G T44G,0.86
11,T23G T44A,0.842
12,A24C T35A,0.782
13,A24C T35C,0.764
14,A24C T35G,0.759
15,A24C C33A,0.147
16,A24C C33T,0.697
17,A24C C33G,0.4
18,A24G G31A,0.202
19,A24G G31C,0.181
20,A24G G31T,0.331
21,A24C T30C,0.168
22,A24C T30G,0.57
23,A24C T30A,0.414
